Where a chain is given by its changes, count along the chain named. Names and notes keep the numbering of the source.
Experiments:
[1] = biological target: T1, thermolysin (Bacillus thermoproteolyticus, UniProt P00800); experiment: Stabilisation of thermolysin in Unilever ALL Small and Mighty detergent by metalloproteinase inhibitors (SDS-PAGE); details: thermolysin 800 μg/ml in Unilever ALL Small and Mighty, FIG. 8
T1 construct: purchased Sigma
T1 sequence (P00800 233-548): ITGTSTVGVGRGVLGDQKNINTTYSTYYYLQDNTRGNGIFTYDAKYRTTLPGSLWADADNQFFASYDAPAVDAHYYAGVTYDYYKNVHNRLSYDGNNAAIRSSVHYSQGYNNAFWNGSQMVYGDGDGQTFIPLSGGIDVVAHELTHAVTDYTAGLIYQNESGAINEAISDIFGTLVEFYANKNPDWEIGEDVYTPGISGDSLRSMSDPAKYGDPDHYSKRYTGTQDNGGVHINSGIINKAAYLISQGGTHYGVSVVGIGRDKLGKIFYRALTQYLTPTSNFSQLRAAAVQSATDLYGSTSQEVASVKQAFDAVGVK
Description: Zinc Chloride, Phosphoramidon, Galardin are known metalloproteinase inhibitors. They were purchased from Sigma and dissolved in water or DMSO. Different concentrations of the inhibitors were premixed with thermolysin (also referred to as Proteinase-T or PrT) for 10 min at room temperature. Then the inhibitors were added into Unilever detergent ALL Small and Mighty so that the final concentration of thermolysin was 800 μg/ml in a total volume of 1 ml. At different time points, samples were taken and precipitated with TCA. Briefly, 10 μl sample of detergent with enzyme was added into 500 μl of 0.2 N HCl on ice, and then 500 μl of 20% TCA was added. The tubes were mixed and incubated on ice for 20 min. The pellet was collected and washed with 90% ice-cold acetone. The pellet was dissolved in sample loading buffer (Invitrogen) for SDS-PAGE analysis.

[2] = Stability assay in 25% TIDE 2X detergent without DTPA (residual Abz-AGLA-Nba protease activity); type: physicochemical; details: 180 min at 50°C; variant residual AGLA activity divided by wild-type residual activity
How it was run: (§1)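 Thermolysin variant culture supernatants stressed in TIDE 2× detergent, with or without DTPA: 60 min at 32° C or 180 min at 50° C. Residual versus unstressed activity on Abz-AGLA-Nba read kinetically at 25° C (Ex 350/Em 420). Performance index is variant residual activity divided by wild-type thermolysin residual activity.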

[3] = TIDE 2X 0.78 g/l, 6 gpg, pH 8.2, 30 min at 20°C, A405; variant vs wild-type thermolysin at same protein concentration
Description: Thermolysin containing protease samples were obtained from filtered broth of cultures grown in microtiter plates for 3 days at 37° C. with shaking at 280 rpm under humidified aeration.
• Thermolysin containing culture supernatants (˜100-200 μg protein per ml) • TIDE® 2× (nil enzymes) detergent (P&G) • Dilution Buffer (10 mM NaCl, 0.1 mM CaCl2, 0.005% TWEEN®-80) The equipment used was a Biomek FX Robot (Beckman Coulter), a SpectraMAX MTP Reader (type 340; Molecular Devices), and an iEMS incubator/shaker (Thermo/Labsystems). MTPs were obtained from Costar (type 9017). TIDE® 2× Liquid Detergent Preparation (US Conditions):
Milli-Q water was adjusted to 6 gpg water hardness using a (Ca/Mg 3:1) hardness stock solution (282.3 g/L CaCl2.2H20, 130.1 g/L MgCl2.6H2O), 0.78 g/1 detergent TIDE® 2× was added, and the detergent solution was stirred vigorously for at least 15 minutes. Then, 5 mM HEPES was added and the pH adjusted to 8.2.
Microswatches of ¼ inch circular diameter were obtained from CFT (Vlaardingen, The Netherlands).
Two microswatches were placed vertically into each well of a 96-well microtiter plate to expose the whole surface area (i.e., not flat on the bottom of the well).
The incubator was set to 20° C. The filtered culture broth samples were tested at an appropriate concentration by dilution with a mixture of 10 mM NaCl, 0.1 mM CaCl2, 0.005% TWEEN®-80 solution. The detergent solution was prepared as described above. Then, 190 μl of detergent solution were added to each well of the MTP, containing microswatches. To this mixture, 10 μl of diluted enzyme solution were added to each well (to provide a total volume of 200 μl/well). The MTP was covered with a plate seal and placed in an incubator for 30 minutes at 20° C., with agitation at 1400 rpm (iEMS incubator). Following incubation under the appropriate conditions, 100 μl of solution from each well was removed and placed into a new MTP. Subsequently this MTP, containing 100 μl of solution/well, was read at 405 nm in a MTP-Reader. Blank controls, containing 2 microswatches/well and detergent, without the addition of thermolysin containing samples, were also included in the test.
The observed absorbance value was corrected for the blank value (obtained after incubation of microswatches in the absence of added enzyme). The resulting absorbance was a measure for the hydrolytic activity. For each sample (thermolysin or a variant) the performance index (PI) was calculated. The performance index is a comparison of the performance of the variant (actual value) and the standard thermolysin enzyme (theoretical value) at the same protein concentration. In addition, the theoretical values were calculated, using the parameters of the Langmuir equation of the standard enzyme.
C. Stability Assay in the Presence of Detergent
In this example, experiments were conducted to determine the stain removal performance of various singly substituted thermolysin (also referred to herein as Proteinase-T or PrT) variants. As described in Example 1, the stain cleaning performance of thermolysin variants was done utilizing a blood/milk/ink (BMI) microswatch assay. Briefly the cleaning performance of chosen single-substitution thermolysin variants was assessed in a TIDE® 2× microswatch assay.

[4] = Stability assay in 25% TIDE 2X detergent with DTPA (residual Abz-AGLA-Nba protease activity); type: physicochemical; details: 60 min at 32°C; variant residual AGLA activity divided by wild-type residual activity
How it was run: as §1

CNC(=O)[C@H](Cc1c[nH]c2ccccc12)NC(=O)[C@@H](CC(=O)NO)CC(C)C [Galardin]
stabilisation of thermolysin in detergent ([1]; 1 mM inhibitor): significantly stabilize thermolysin in detergent

CC(C)C[C@H](NP(=O)(O)O[C@@H]1O[C@@H](C)[C@H](O)[C@@H](O)[C@H]1O)C(=O)N[C@@H](Cc1c[nH]c2ccccc12)C(=O)O [Phosphoramidon]
stabilisation of thermolysin in detergent ([1]; 500 μM inhibitor): significantly stabilize thermolysin in detergent

B1: Y151N: single-substitution thermolysin variant (SEQ ID NO:3 numbering) (protein, listed as Geobacillus caldoproteolyticus)
chain: T1 sequence (P00800 233-548) with Y151N
PI (relative stability), 25% TIDE 2X without DTPA [2]: 1.05
PI (performance index), stain removal [3]: 1.19
PI (relative stability), 25% TIDE 2X with DTPA [4]: 1.25

B2: T049N: single-substitution thermolysin variant (SEQ ID NO:3 numbering) (protein, listed as Geobacillus caldoproteolyticus)
chain: T1 sequence (P00800 233-548) with T49N
PI (relative stability), 25% TIDE 2X without DTPA [2]: 1.07
PI (performance index), stain removal [3]: 1.10
PI (relative stability), 25% TIDE 2X with DTPA [4]: 1.03

B3: Y151T: single-substitution thermolysin variant (SEQ ID NO:3 numbering) (protein, listed as Geobacillus caldoproteolyticus)
chain: T1 sequence (P00800 233-548) with Y151T
PI (relative stability), 25% TIDE 2X without DTPA [2]: 1.10
PI (performance index), stain removal [3]: 1.13
PI (relative stability), 25% TIDE 2X with DTPA [4]: 1.18
